The values that follow come from patent US20130336980A1 (Janssen / Centocor, published 2013).

Broadly, the Kd is a measure of binding affinity in units of concentration. Broadly, the koff is the rate constant with which the complex falls apart. Read a high koff as a short-lived complex. As a reminder, the kon is the rate constant with which the complex forms. In general, IC50 refers to the point on the concentration scale where inhibition reaches its midpoint. Low readings indicate inhibition by little substance, high ones a need for much substance.

Like-named read-outs stand apart in the source and are kept apart here.

For assay [1], the target named is T1, human ST2L extracellular domain with C-terminal His6 tag (human, UniProt Q01638 19-328).
T1 construct: also called huST2L-ECD; ST2L-ECD
T1 sequence: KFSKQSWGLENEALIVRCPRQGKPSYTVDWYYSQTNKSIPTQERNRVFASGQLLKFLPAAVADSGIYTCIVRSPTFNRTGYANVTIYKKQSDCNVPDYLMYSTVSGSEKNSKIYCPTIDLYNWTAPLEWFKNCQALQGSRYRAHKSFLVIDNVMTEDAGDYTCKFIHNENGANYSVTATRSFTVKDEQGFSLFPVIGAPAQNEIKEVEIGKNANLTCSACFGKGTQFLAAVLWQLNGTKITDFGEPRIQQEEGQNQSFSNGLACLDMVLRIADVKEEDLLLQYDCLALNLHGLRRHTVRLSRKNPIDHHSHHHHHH
The assay can be described thus: MSD electrochemiluminescence competition assay on plate-coated ST2L-ECD; unlabeled antibody titrated against 30 nM sulfo-tag labeled C2244 Fab. The method, then:
Competition binding assays were performed to evaluate different binding epitope groups for anti-ST2L mAbs. 5 μl (10 μg/ml) of ST2L-ECD protein was coated on MSD HighBind plate (Meso Scale Discovery, Gaithersburg, Md.) per well for 2 hr at room temperature. One-hundred and fifty microliters of 5% MSD Blocker A buffer (Meso Scale Discovery, Gaithersburg, Md.) was added to each well and incubated for 2 hr at room temperature. Plates were washed three times with 0.1 M HEPES buffer, pH 7.4, followed by the addition of the mixture of the MSD fluorescence dye (sulfo tag, NHS ester) labeled individual anti-ST2L antibody with different competitors. Labeled antibody, 10 or 30 nM, was incubated with increasing concentrations of competitor antibodies, from 1 nM to 2 or 5 μM, and then added to the designated wells in a volume of 25 μL mixture. After 2-hour incubation with gentle shaking at room temperature, plates were washed 3 times with 0.1M HEPES buffer (pH 7.4). MSD Read Buffer T was diluted with distilled water (4-fold) and dispensed at a volume of 150 μL/well and analyzed with a SECTOR Imager 6000.

The target of assay [2] is 18AKF20-->TEG. The assay can be described thus: SPR, ProteOn XPR36, 25 C: mAb captured on anti-Fc surface, ST2L-D1D2 (HH-ST2L) wild type or variant injected, 1:1 model.
Assay [3] concerns the target T1, human ST2L extracellular domain with …. Put plainly: SPR, captured mAb, ST2L-ECD analyte. In general terms: SPR reads the build-up and loss of mass on a sensor chip optically.
Assay [4] deals with T2, cynomolgus ST2L extracellular domain with C-terminal His6 tag (Macaca fascicularis (cyno), UniProt Q01638 19-321 (human entry)).
T2 construct: also called cynoST2L-ECD; cyno ST2L
T2 chain: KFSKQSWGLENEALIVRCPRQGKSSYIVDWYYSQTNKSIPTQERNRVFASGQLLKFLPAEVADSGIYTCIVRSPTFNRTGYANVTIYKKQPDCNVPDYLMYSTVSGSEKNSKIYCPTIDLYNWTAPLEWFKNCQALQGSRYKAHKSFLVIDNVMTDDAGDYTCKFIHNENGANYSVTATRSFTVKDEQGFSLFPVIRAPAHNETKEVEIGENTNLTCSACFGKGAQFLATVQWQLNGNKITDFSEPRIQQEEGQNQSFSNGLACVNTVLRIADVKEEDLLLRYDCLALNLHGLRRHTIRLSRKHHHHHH
Put plainly: SPR, captured mAb, ST2L-ECD analyte.

In assay [5] the target is T3, human ST2L on cells (human, UniProt Q01638 19-556).
T3 sequence: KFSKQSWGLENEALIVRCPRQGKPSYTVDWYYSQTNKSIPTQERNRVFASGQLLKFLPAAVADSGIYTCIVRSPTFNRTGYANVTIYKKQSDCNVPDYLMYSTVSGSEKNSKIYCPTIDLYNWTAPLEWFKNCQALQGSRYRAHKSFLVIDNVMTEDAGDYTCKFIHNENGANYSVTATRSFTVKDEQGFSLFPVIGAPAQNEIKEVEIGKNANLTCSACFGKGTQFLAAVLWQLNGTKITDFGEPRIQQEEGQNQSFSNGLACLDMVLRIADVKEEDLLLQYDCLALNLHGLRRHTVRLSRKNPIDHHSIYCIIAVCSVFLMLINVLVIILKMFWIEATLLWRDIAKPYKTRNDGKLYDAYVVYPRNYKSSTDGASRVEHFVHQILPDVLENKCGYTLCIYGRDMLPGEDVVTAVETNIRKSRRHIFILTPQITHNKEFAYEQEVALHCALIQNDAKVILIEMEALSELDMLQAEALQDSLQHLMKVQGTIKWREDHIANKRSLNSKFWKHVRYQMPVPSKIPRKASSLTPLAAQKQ
Put plainly: cell-based or functional assay.

Assay [6] concerns the target T1, human ST2L extracellular domain with …. Put plainly: SPR, captured mAb, ST2L-ECD analyte. The method, then:
(§1) The interactions of anti-ST2L antibodies with His₆-tagged human ST2L-ECD and His₆-tagged cyno ST2L-ECD were studied by ProteOn using a ProteOn XPR36 at 25° C. A biosensor surface was prepared by coupling goat anti-human IgG Fcγ fragment specific antibody (Ab) to the surface of a GLC sensor chip using the manufacturer instructions for amine-coupling chemistry. The coupling buffer was 10 mM sodium acetate, pH 4.5. The goat anti-human IgG Fcγ (about 4500 response units) was immobilized in the horizontal orientation. The anti-ST2L antibodies were provided purified, or in crude supernatants. In either case these antibodies were diluted in PRB (PBS pH 7.4, supplemented with, 3 mM EDTA, and 0.005% Tween 20) to a concentration of about 0.5 μg/mL. The antibodies were captured (60-130 RU) in the vertical orientation onto the anti-human Fcγ antibody-modified GLC chip. Capture of anti-ST2L mAbs was followed by injection of huST2L ECD in solution (0.024 to 15 nM in 5-fold dilutions) or cynoST2L ECD in solution (0.020-5 nM in 4-fold dilutions) in the horizontal orientation. The association was monitored for 4 minutes in all experiments (200 μL injected at 50 μL/min). The dissociation was monitored for 30 minutes. Regeneration of the sensor surface was obtained with three 15 sec pulses of 10 mM glycine pH 1.5. The data were fit using the ProteOn software and using a 1:1 binding model with mass transfer.
The source holds these as a separate data set.

In assay [7] the target is T2, cynomolgus ST2L extracellular domain …. Put plainly: SPR, captured mAb, ST2L-ECD analyte. The method, then: as §1
Assay [8] has as its target T1, human ST2L extracellular domain with …. Put plainly: RLB ELISA, inhibition of biotin-IL-33 binding to coated huST2L-ECD. For orientation: ELISA stands for enzyme-linked immunosorbent assay.

B1: STLM15 (antibody, human IgG2, V domains shown)
VH: EVQLQESGPGLVKPSQSLSLTCTVTGFSITSDYAWNWIRQFPGSKLEWMGFISYSGDTSFNPSLKSRISVTRDTSKNQFFLQLNSVTTEDTATYYCASYDGYSFDYWGQGTTLTVSS
VL: DIVLTQSPASLAISLGQRATISCRASKSVSTSGSSYMFWYQQKPGQPPKLLIYLASNLESGVPARFSGSGSGTDFTLNIHPVEEEDAAAYYCQHSREIPYTFGGGTKLEIK
notes: Mouse hybridoma C2244 V regions cloned into human IgG2 background = STLM15; also called C2244; C2244/STLM15
As for B1, in assay [1], the “IC50 (read off the curve)” value is around 100 nM.

B2: STLM208 (antibody, V domains shown)
VH: EVQLLESGGGLVQPGGSLRLSCAASGFTFSIYDMIWVRQAPGKGLEWVSSIRGEGGGTYYADSVKGRFTISRDNSKNTLYLQMNSLRAEDTAVYYCARDPWSTEGSFFVLDYWGQGTLVTVSS
VL: EIVLTQSPATLSLSPGERATLSCRASQSVDDDLAWYQQKPGQAPRLLIYDASNRATGIPARFSGSGSGTDFTLTISSLEPEDFAVYYCQQYITAPLTFGQGTKVEIK
For B2, in assay [2], the Kd worked out at 0.0193 nM, the koff amounted to 0.000229 s⁻¹ and the kon was 1.3e+07 M⁻¹ s⁻¹.

B3: ST2M50 (antibody, V domains shown)
VH: EVQLVQSGAEVKKPGESLKISCKGSGYSFTSYWIGWVRQMPGKGLEWMGIIYPGDSYTRYSPSFQGQVTISADKSISTAYLQWSSLKASDTAMYYCARLSGRFDYWGQGTLVTVSS
VL: EIVLTQSPATLSLSPGERATLSCRASQSVSNALAWYQQKPGQAPRLLIYFASNRATGIPARFSGSGSGTDFTLTISSLEPEDFAVYYCQQFFNWPITFGQGTKVEIK
On to B3, for which, in assay [3], the affinity, expressed as Kd, was 0.045 nM; the koff is 5.1e-05 s⁻¹; the kon was found to be 1.15e+06 M⁻¹ s⁻¹. In assay [4], this molecule came in with a Kd of 0.124 nM, a koff of 0.00249 s⁻¹ and a kon of 2.01e+07 M⁻¹ s⁻¹.

B4: STLM206 (antibody, V domains shown)
VH: EVQLLESGGGLVQPGGSLRLSCAASGFTFSIYDMIWVRQAPGKGLEWVSTIRGEGGSTYYADSVKGRFTISRDNSKNTLYLQMNSLRAEDTAVYYCARDPWSTEGSFFVLDYWGQGTLVTVSS
VL: EIVLTQSPATLSLSPGERATLSCRASQSVDDDLAWYQQKPGQAPRLLIYDASNRATGIPARFSGSGSGTDFTLTISSLEPEDFAVYYCQQYITAPLTFGQGTKVEIK
notes: IgG; VH3-23 / Vk-L6 frameworks
In the case of B4, the “RGA IC50” value in assay [5] is 0.67 µg/mL. In assay [6], this molecule returned a Kd of 0.025 nM, a koff of 0.00016 s⁻¹ and a kon of 6.39e+06 M⁻¹ s⁻¹. Besides, in assay [7], the Kd was 0.006 nM, the koff came to 0.000583 s⁻¹ and the kon was 9.4e+07 M⁻¹ s⁻¹. Also, the IC50 in assay [8] came out at 0.4 µg/mL.
